± gives the uncertainty stated by the source.

The series in a line: amyloid nucleation score (Sup35N fusion, yeast selection) (log enrichment); library NNK1; higher = more nucleation; inactive = no reads after selection. Summed up:
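Nucleation score: DiMSum log enrichment of output over input reads, centred on the mode score of non-aggregating sequences. Only sequences with at least 100 input reads were kept. Reads came from Illumina sequencing of plasmid inserts before and after 7 days of growth at 30°C without adenine and uracil, in psi-negative yeast expressing Sup35N fused to peptides of 20 random codons after 24 hours of induction with 100 μM copper sulfate.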

Take WRYRSRCMGGVVDRLLCDVW: the amyloid nucleation score is 3.33 ± 0.076.
In the case of TNIALLV, the amyloid nucleation score stood at 0.847 ± 0.42.
As to WADNNTSH, the amyloid nucleation score was -0.094 ± 0.34.
The same measure for VFMIVCK: “inactive”; for CSFFTKDSDTP: 0.327 ± 0.3; for SVLCHCVLNVWLGWHLWIDP: 0.707 ± 0.53.
Regarding CRLFVFPF, the amyloid nucleation score is -0.336 ± 1.4.
The result for GYSGLLYVSRVVSYLIHFWV reads 0.702 ± 0.47; that for CIRVSIVID, 0.215 ± 0.38.
The same measure for MPVALKIAILTFWEKSNLCE: 1.27 ± 0.88; for AYLYQSSYLVRC: 0.368 ± 0.36; for DSYWILSLLWGL: -0.369 ± 0.19.
Turning to TDFPELWSNLFQPNGFRYGL, the amyloid nucleation score came out at 0.114 ± 0.92.
The same measure for MVKRCVDNFRKWKSVDSSYR: 0.671 ± 0.37.
SFFMYLNIRWIWSMCVNAIE returned an amyloid nucleation score of 0.09 ± 0.58.
The result for GKCFVVMWRVLGVDSVLMEV reads -0.414 ± 0.25; that for FVKVAPANKGISGKRDLCKL, 0.215 ± 0.3; that for SCVLRLNMAYIIVVVNSLEC, “inactive”.
In turn, VLEISIDSDRAPMCGRRMDL registered an amyloid nucleation score of 0.56 ± 1.
As for LNRLSFLV, the amyloid nucleation score is 0.065 ± 1.2.
The result for HDFYEDIVMEYVL reads 1.55 ± 0.51; that for GVCALAHRAPIWDQFVGMLV, 0.109 ± 0.28; that for VNCLLDQQYR, 0.746 ± 0.46.
In turn, EGIHKR registered an amyloid nucleation score of 0.324 ± 0.66.
Substance IYFLR yielded an amyloid nucleation score of -0.103 ± 0.42.
Take GKSRS: the amyloid nucleation score worked out at 0.784 ± 0.49.
Substance SRWPAVVRTLFRSCKV returned an amyloid nucleation score of 0.48 ± 0.65.
The same measure for LTYATDSFNRNFHILMHHVP: -0.711 ± 0.74; for HFNFNFAQSRNEMLVASG: -1.16 ± 1.6.
For VLLSGDIRCDTSVSVTGLSH, the amyloid nucleation score is -0.061 ± 0.3.
The result for LSYSWADSAPLCCTPMRGRG reads -0.324 ± 0.37.
The same measure for FFGGNSAVVVIRWMSRSGHW: 0.489 ± 0.64; for DLFYINIVMKSFVHWVNHLH: 0.416 ± 0.28; for NLFTDVIHYMVAFLLVYYII: 0.682 ± 0.49.
The same measure for YLTSANTSFTFESWWCL: 2.93 ± 0.22; for RRRSLLLVWRMTVGWVWGWD: -0.215 ± 0.62; for VIMFSFIS: 5.04 ± 0.062.
In turn, GTWLSMLDSSV registered an amyloid nucleation score of -0.32 ± 0.79.
The result for QHPIWCNRSPLTHDRDTVG reads 0.239 ± 0.24; that for CRTCGFPLLYSAELVLEVC, 0.018 ± 0.45.
The same measure for PKFSLMQLTPGLGTQ: 3.13 ± 0.13.
In the case of ALTIDRCRAESYLRRLTFLL, the amyloid nucleation score was -0.653 ± 0.4.
The same measure for SDRSLVGRNAGM: -0.468 ± 0.65; for TFVYVKASLSSTIAASYVAQ: 1.34 ± 0.27.
Regarding TLSGSYVF, the amyloid nucleation score is -0.567 ± 0.3.
HFSNIDNARNCSDSYWRYGI returned an amyloid nucleation score of 0.168 ± 0.3.
Turning to SLKDVPISCFNYMHC, the amyloid nucleation score was found to be 4.39 ± 0.094.
Take WLGMRMVGNVVERLYSVRCQ: the amyloid nucleation score is -0.111 ± 0.7.
The substance LNWVLFADLLWPR yielded an amyloid nucleation score of 0.212 ± 0.57.
SFVFLRNL returned an amyloid nucleation score of 0.142 ± 0.32.
The result for LSFCDTQRMWSSDG reads 0.483 ± 0.85; that for KPGFYT, -0.705 ± 0.92; that for FMLYTTVTERAWRHLN, 0.395 ± 0.36.
The same measure for LPSNFCVKLSSTYYQVFG: -2.37 ± 1.8.
The same measure for GGRLEKRTCASCTSGQVVGV: 0.294 ± 0.42; for VNHTKPVDILHC: 0.521 ± 0.31.
CVIRKSLFKCQFSMIRESWV returned an amyloid nucleation score of 0.298 ± 0.31.
KPLCLNYKCLYIILVCVGDP gave an amyloid nucleation score of 0.151 ± 0.27.
As to SRRFYLTPELPVTHVCCVGK, the amyloid nucleation score came out at 1.03 ± 0.62.
Turning to WSVDIGLRGLIMRMKYCEFR, the amyloid nucleation score is -1.01 ± 0.54.
The result for IFAPAIMSFYSLVIQWPYPG reads 1.99 ± 0.45; that for TARWAKPVADNGCVNNTFLW, 2.15 ± 0.27.
LAWYFTPFVDHS had an amyloid nucleation score of 1.13 ± 0.84.
The same measure for ETLAFVLRFRNREDFCGGMV: 1.01 ± 0.64; for SSVLVLHYRTSG: 2.58 ± 0.09.
On to ISLSSGLALKPS, for which the amyloid nucleation score stood at 1.41 ± 0.48.
Consider RRGAKRSLWLIRNLWWDKSK, for which the amyloid nucleation score entry is “inactive”.
In the case of CTGFLRVWPLGEMYEDRR, the amyloid nucleation score was 0.12 ± 0.58.
The result for NACFSIKQTYWNVT reads 0.537 ± 0.34; that for QTRRVVHSGN, 0.284 ± 0.81; that for FFLMIQSVT, 0.84 ± 0.47.
The result for LCPGNMLLLITDQYSNWEEI reads 0.068 ± 0.3.
The same measure for LLQNNCHLYYCLNGLVFRVR: 0.162 ± 0.32; for CYATMYAQGDRRSGDGCLPT: -1.86 ± 1.4.
As for CDFRIFRLSVPGTYYVCDWL, the amyloid nucleation score was -0.018 ± 0.6.
The same measure for CRCAPYSNGKTGIHARLFNT: 0.794 ± 1.1; for DMHLMSGDLGMRVRPGGSAV: 0.371 ± 0.7.
Substance LTHYEFGTFFYKVWSNDRHK came in with an amyloid nucleation score of 3.35 ± 0.062.
EFGRDNHVLVLWMGRAPSDM had an amyloid nucleation score of -0.436 ± 0.55.
FGHGV came in with an amyloid nucleation score of -0.626 ± 1.6.
The result for VGYNNWTLVWGQGAMRVYSG reads 0.033 ± 0.34.
LICAAAKLIHGWGNKWIYVT registered an amyloid nucleation score of -0.368 ± 1.7.
The same measure for IRCLSMIWVTKDVLIIWRSQ: 0.159 ± 0.93; for DRFLCGWSLPSC: -0.656 ± 0.61; for VDLLFDTNCNSF: “inactive”.
The result for LGNCTGRRHV reads 2.42 ± 0.36.
The result for GSIIMWHYGYYHGCNFYCCH reads 6.98 ± 0.07; that for IYFVIGYVNVCWGSATEDMT, 5.46 ± 0.084.
Regarding YCYYYVNTCVV, the amyloid nucleation score stood at 2.07 ± 0.53.
The substance VVPFRLLDIQRNGCFDHGYP returned an amyloid nucleation score of 0.142 ± 1.4.
The same measure for VLFKGHLIEV: 0.138 ± 0.3; for RLVNPRDCKFNDTRTFCSRR: 0.118 ± 0.52; for SMCNCDPSVALRSMY: -0.279 ± 0.25.
The same measure for IVFFWMMLVGLNRLGVNRVG: -0.846 ± 1.7; for PIFAVTKVQVMRPH: -1.94 ± 2.7.
For GASCTLISCLLLLHSAWSLS, the amyloid nucleation score came to 0.237 ± 0.59.
Substance DTLHSNCCGSWPYDSSKRNV had an amyloid nucleation score of 0.95 ± 0.33.
The same measure for EKRRNNTSNRSWSGSYFLDT: 0.111 ± 0.28; for IVKGLSCKIDWLCASMHWMR: 0.053 ± 0.36; for GLHKYPCYPTNSRYVVVINM: 3.27 ± 0.066.
The result for LMRDSCHDQQVLGCFYMSKL reads -0.215 ± 1.2.
The result for DPFAHYISVYRDSHSVYLSS reads “inactive”; that for NEPHWSLLRF, -0.535 ± 0.65; that for MILTTPAAERLLYYILPLRD, -0.616 ± 0.81.
TLFCYADMWYNLYHRIVKVR: the amyloid nucleation score turned out to be 1.52 ± 0.48.
The result for VCNCCLHVYIPSRAGNRPMR reads 8.251 ± 0.072.
The result for RWIFSSWLLDGILGERCQTV reads -0.484 ± 1.1; that for FFVVMVIDNKHPQQENSRIR, 1.74 ± 0.34.
The result for HMWIEFSAVLFSYDMASSNV reads -0.417 ± 0.52; that for HLEGFYLGIWHGRSRVFSRN, 2.77 ± 0.23.
The substance IQSRDGVSYKQDVWTLGCVL gave an amyloid nucleation score of 0.658 ± 0.55.
The substance RLDSPDVVSAFCEAALASAS showed an amyloid nucleation score of 0.136 ± 0.76.
The same measure for FTISSKLRYIGTGVINGPVD: -0.397 ± 0.56.
Turning to NMIKYVTLKMRL, the amyloid nucleation score was found to be 0.328 ± 0.6.
YLLLGYSHYQMNVLFNTRQS: the amyloid nucleation score result was “inactive”.
On to YSMVI, for which the amyloid nucleation score entry was “inactive”.
Substance FKYALKTSCLLIVQDGGSMR registered an amyloid nucleation score of -0.023 ± 1.4.
Substance LSPGYSHTN yielded an amyloid nucleation score of -0.423 ± 0.6.
On to GSCLFVRGSFVDVGRLFESV, for which the amyloid nucleation score is 0.643 ± 0.67.
The same measure for LCSLVFTIRRTPPWVQSMLR: 0.096 ± 0.8.
DVYTLMGEVDELRSFRIIIR yielded an amyloid nucleation score of -0.458 ± 0.27.
Substance LWPFKSFGLVPCTV registered an amyloid nucleation score of -0.572 ± 0.69.
The same measure for ITVRAISMWWRDSS: 0.263 ± 0.4.
With MLVPRSRIRIPACRFQHRLP, the amyloid nucleation score is -0.064 ± 0.35.
The same measure for TDAPP: 0.126 ± 1.1.
The same measure for GTFSDAFVLLIFCLYGINYL: 1.54 ± 0.53.
Substance IAMSSYPLD had an amyloid nucleation score of 1.02 ± 1.1.
For the substance RIDCYW, the amyloid nucleation score is -0.858 ± 1.1.
For MQTLNCSPNQAHSSIFN, the amyloid nucleation score is 0.915 ± 0.97.
The substance FRALKLEAIPAKVGAPYLVP returned an amyloid nucleation score of 0.045 ± 0.4.
The result for GRVFSFMIGFFVALTERTRA reads -0.037 ± 1.7; that for ISLWLFVFCCHIISISKWLL, “inactive”.
YLLYDQQVSLRFVWITLSVW returned an amyloid nucleation score of 0.683 ± 0.41.
The same measure for GHLWWSVLLVPLFTVGSTSV: 0.399 ± 0.56; for LFFQANKLLVIYNCRIYTTF: 6.32 ± 0.07.
TCGLHQPFLGLFVSSSSIMT came in with an amyloid nucleation score of 0.175 ± 0.41.
The result for GMAVFV reads 0.18 ± 1.1; that for FQHTLGRKA, 0.438 ± 0.68.
Take LCVSCARVKLLNRT: the amyloid nucleation score was -0.144 ± 0.55.
In turn, LSCQTPQSDEMSVAESAWAY came in with an amyloid nucleation score of -1.18 ± 1.2.
Substance NNKQYLI registered an amyloid nucleation score of 1.59 ± 0.38.

The values above are taken from the supplement of paper PMC12042874.
